The values that follow come from IntAct's records for PubMed 22664871.

B1: Tumor necrosis factor ligand superfamily member 11 (Homo sapiens), O14788 (parent)
chain: MRRASRDYTKYLRGSEEMGGGPGAPHEGPLHAPPPPAPHQPPAASRSMFVALLGLGLGQVVCSVALFFYFRAQMDPNRISEDGTHCIYRILRLHENADFQDTTLESQDTKLIPDSCRRIKQAFQGAVQKELQHIVGSQHIRAEKAMVDGSWLDLAKRSKLEAQPFAHLTINATDIPSGSHKVSLSSWYHDRGWAKISNMTFSNGKLIVNQDGFYYLYANICFRHHETSGDLATEYLQLMVYVTKTSIKIPSSHTLMKGGSTKYWSGNSEFHFYSINVGGFFKLRSGEEISIEVSNPSLLDPDQDATYFGAFKVRDID
partner: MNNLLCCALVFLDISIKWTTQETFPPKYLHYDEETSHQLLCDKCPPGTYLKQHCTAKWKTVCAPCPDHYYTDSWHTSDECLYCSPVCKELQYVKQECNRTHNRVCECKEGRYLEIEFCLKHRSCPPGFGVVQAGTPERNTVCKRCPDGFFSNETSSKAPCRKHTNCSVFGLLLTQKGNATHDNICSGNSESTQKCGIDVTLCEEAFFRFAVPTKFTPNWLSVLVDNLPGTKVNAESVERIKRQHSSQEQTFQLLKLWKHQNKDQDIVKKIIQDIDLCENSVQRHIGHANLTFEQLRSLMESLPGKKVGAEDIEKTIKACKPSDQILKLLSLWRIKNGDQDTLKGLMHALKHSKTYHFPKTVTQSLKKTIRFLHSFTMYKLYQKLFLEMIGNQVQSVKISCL
B2: Tumor necrosis factor ligand superfamily member 11 (Homo sapiens), O14788 (parent)
chain: B1 chain
partner: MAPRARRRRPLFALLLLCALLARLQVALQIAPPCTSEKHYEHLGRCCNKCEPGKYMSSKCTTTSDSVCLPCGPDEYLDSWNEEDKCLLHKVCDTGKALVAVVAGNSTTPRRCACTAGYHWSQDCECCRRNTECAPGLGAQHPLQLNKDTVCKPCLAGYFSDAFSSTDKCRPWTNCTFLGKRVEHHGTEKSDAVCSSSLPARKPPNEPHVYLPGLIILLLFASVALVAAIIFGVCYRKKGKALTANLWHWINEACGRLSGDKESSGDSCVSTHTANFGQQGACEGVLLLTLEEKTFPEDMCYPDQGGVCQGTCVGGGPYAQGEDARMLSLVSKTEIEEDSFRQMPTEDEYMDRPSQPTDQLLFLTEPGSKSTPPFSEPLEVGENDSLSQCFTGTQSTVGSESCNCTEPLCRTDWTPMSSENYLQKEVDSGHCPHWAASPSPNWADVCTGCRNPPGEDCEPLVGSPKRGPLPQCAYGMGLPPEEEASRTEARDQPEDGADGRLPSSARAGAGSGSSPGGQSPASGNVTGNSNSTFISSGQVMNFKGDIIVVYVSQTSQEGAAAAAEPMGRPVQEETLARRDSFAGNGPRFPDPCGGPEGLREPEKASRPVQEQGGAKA
B3: Tumor necrosis factor receptor superfamily member 11B (Homo sapiens), O00300 (parent)
chain: B1 partner
partner: B1 chain

In one assay the parent is B1. Conditions: with tr11b_human TNFRSF11B.
Regarding MRRASRDYTKYLRGSEEMGGGPGAPHEGPLHAPPPPAPHQPPAASRSMFVALLGLGLGQVVCSVALFFYFRAQMDPNRISEDGTHCIYRILRLHENADFQDTTLESQDTKLIPDSCRRIKQAFQGAVQKELQHIVGSQHIRAEKAMVDGSWLDLAKRSKLEAQPFAHLTINATDIPSGSHKVSLSSWYHDRGWAKISNMTFSNGKLIVNQDGFYYLYANICFRHHETSGDLATEYLQLMVAVTKTSIKIPSSHTLMKGGSTKYWSGNSEFHFYSINVGGFFKLRSGEEISIEVSNPSLLDPDQDATYFGAFKVRDID [Y241A], the “effect of a mutation on the interaction” value was “decreasing interaction strength”.
As for MRRASRDYTKYLRGSEEMGGGPGAPHEGPLHAPPPPAPHQPPAASRSMFVALLGLGLGQVVCSVALFFYFRAQMDPNRISEDGTHCIYRILRLHENADFQDTTLESQDTKLIPDSCRRIKQAFQGAVQKELQHIVGSQHIRAEKAMVDGSWLDLAKRSKLEAQPFAHLTINATDIPSGSHKVSLSSWYHDRGWAKISNMTFSNGKLIVNQDGFYYLYANICFAHHETSGDLATEYLQLMVYVTKTSIKIPSSHTLMKGGSTKYWSGNSEFHFYSINVGGFFKLRSGEEISIEVSNPSLLDPDQDATYFGAFKVRDID [R223A], the “effect of a mutation on the interaction” value is on record as “disrupting interaction strength”.
Still for that read-out and setting: next, MRRASRDYTKYLRGSEEMGGGPGAPHEGPLHAPPPPAPHQPPAASRSMFVALLGLGLGQVVCSVALFFYFRAQMDPNRISEDGTHCIYRILRLHENADFQDTTLESQDTKLIPDSCRRIKQAFQGAVQKELQHIVGSQHIRAEKAMVDGSWLDLAKRSKLEAQPFAHLTINATDIPSGSHKVSLSSWYHDRGWAKISNMTFSNGKLIVNQDGFYYLYANICFRHHETSGDLATEYLQLMVYVTKTSIKIPSSHTLMAGGSTKYWSGNSEFHFYSINVGGFFKLRSGEEISIEVSNPSLLDPDQDATYFGAFKVRDID [K257A]: “disrupting interaction strength”.

The next assay covers variants of B2. The note with it: with tnr11_human TNFRSF11A.
In the case of MRRASRDYTKYLRGSEEMGGGPGAPHEGPLHAPPPPAPHQPPAASRSMFVALLGLGLGQVVCSVALFFYFRAQMDPNRISEDGTHCIYRILRLHENADFQDTTLESQDTKLIPDSCRRIKQAFQGAVQKELQHIVGSQHIRAEKAMVDGSWLDLAKRSKLEAQPFAHLTINATDIPSGSHKVSLSSWYHDRGWAKISNMTFSNGKLIVNQDGFYYLYANICFRHHETSGDLATEYLQLMVYVTKTSIKIPSSHTLMAGGSTKYWSGNSEFHFYSINVGGFFKLRSGEEISIEVSNPSLLDPDQDATYFGAFKVRDID [K257A], the “effect of a mutation on the interaction” value was “disrupting interaction strength”.
Turning to MRRASRDYTKYLRGSEEMGGGPGAPHEGPLHAPPPPAPHQPPAASRSMFVALLGLGLGQVVCSVALFFYFRAQMDPNRISEDGTHCIYRILRLHENADFQDTTLESQDTKLIPDSCRRIKQAFQGAVQKELQHIVGSQHIRAEKAMVDGSWLDLAKRSKLEAQPFAHLTINATDIPSGSHKVSLSSWYHDRGWAKISNMTFSNGKLIVNQDGFYYLYANICFAHHETSGDLATEYLQLMVYVTKTSIKIPSSHTLMKGGSTKYWSGNSEFHFYSINVGGFFKLRSGEEISIEVSNPSLLDPDQDATYFGAFKVRDID [R223A], the “effect of a mutation on the interaction” value is “disrupting interaction strength”.
For MRRASRDYTKYLRGSEEMGGGPGAPHEGPLHAPPPPAPHQPPAASRSMFVALLGLGLGQVVCSVALFFYFRAQMDPNRISEDGTHCIYRILRLHENADFQDTTLESQDTKLIPDSCRRIKQAFQGAVQKELQHIVGSQHIRAEKAMVDGSWLDLAKRSKLEAQPFAHLTINATDIPSGSHKVSLSSWYHDRGWAKISNMTFSNGKLIVNQDGFYYLYANICFRHHETSGDLATEYLQLMVAVTKTSIKIPSSHTLMKGGSTKYWSGNSEFHFYSINVGGFFKLRSGEEISIEVSNPSLLDPDQDATYFGAFKVRDID [Y241A], the “effect of a mutation on the interaction” value was “decreasing interaction strength”.

The variants in another assay derive from B3. The note with it: with tnf11_human TNFSF11, O14788.
For the variant MNNLLCCALVFLDISIKWTTQETFPPKYLHYDEETSHQLLCDKCPPGTYLKQHCTAKWKTVCAPCPDHYYTDSWHTSDECLYCSPVCKELQYVKQECNRTHNRVCECKEGRYLEIAFCLKHRSCPPGFGVVQAGTPERNTVCKRCPDGFFSNETSSKAPCRKHTNCSVFGLLLTQKGNATHDNICSGNSESTQKCGIDVTLCEEAFFRFAVPTKFTPNWLSVLVDNLPGTKVNAESVERIKRQHSSQEQTFQLLKLWKHQNKDQDIVKKIIQDIDLCENSVQRHIGHANLTFEQLRSLMESLPGKKVGAEDIEKTIKACKPSDQILKLLSLWRIKNGDQDTLKGLMHALKHSKTYHFPKTVTQSLKKTIRFLHSFTMYKLYQKLFLEMIGNQVQSVKISCL [E116A], the “effect of a mutation on the interaction” value is “decreasing interaction strength”.
Still for that read-out and setting: in the case of MNNLLCCALVFLDISIKWTTQETFPPKYLHYDEETSHQLLCDKCPPGTYLKQHCTAKWKTVCAPCPDHYYTDSWHTSAACLYCSPVCKELQYVKQECNRTHNRVCECKEGRYLEIEFCLKHRSCPPGFGVVQAGTPERNTVCKRCPDGFFSNETSSKAPCRKHTNCSVFGLLLTQKGNATHDNICSGNSESTQKCGIDVTLCEEAFFRFAVPTKFTPNWLSVLVDNLPGTKVNAESVERIKRQHSSQEQTFQLLKLWKHQNKDQDIVKKIIQDIDLCENSVQRHIGHANLTFEQLRSLMESLPGKKVGAEDIEKTIKACKPSDQILKLLSLWRIKNGDQDTLKGLMHALKHSKTYHFPKTVTQSLKKTIRFLHSFTMYKLYQKLFLEMIGNQVQSVKISCL [D78A;E79A] it was “with no effect”.
